Measurements as given in patent US12630850B2, “Enzymatic break down of chlorogenic acid in sunflower-containing products” (Chapman University, priority 2022, dated 2026).
Several values for one entry are separate records, joined by “and”; a condition that tells them apart may be missing. Equal values may be shown once.

Tests used:
[1] = Michaelis-Menten assay of CGA hydrolysis in buffer (absorption spectroscopy); format: biochemical; details: for kcat: CGA in buffer, room temperature
Protocol: Enzymatic assays to determine Michaelis-Menten parameters. Michaelis-Menten assays were conducted at 21° C. using an Agilent Technologies Cary 60 UV-Vis spectrophotometer. A stock solution of CGA was prepared by dissolving CGA in 50 mM HEPES pH 8.0 followed by calculation of concentration using the Lambert-Beer law with an extinction coefficient of 17,194 M^−1 cm^−1 at 330 nm. Subsequent dilutions of stock CGA were prepared to achieve final CGA concentrations of 0.02 mM, 0.04 mM, 0.06 mM, 0.10 mM, 0.20 mM, and 0.40 mM CGA. The final CGA esterase concentration in all enzymatic assays was 10 nM unless noted otherwise. All samples used for enzymatic assays were buffered in 50 mM HEPES, pH 8.0. Absorption scans were taken at 0.05 or 0.1 min intervals for 2 min between wavelengths of 250 nm and 400 nm. For CGA concentrations below 0.1 mM, the pathlength was 1 cm. Above 0.1 mM CGA, the pathlength was 0.5 cm.
To measure CGA depletion (Δ[CGA]), Equation 1 was used: […]
A is the absorbance at any time point in the reaction, Ao is the initial absorbance, εCA and εCGA are the extinction coefficients at 340 nm of caffeic acid (CA) and CGA, which are 4.15 mM^−1 cm^−1 and 14.43 mM^−1 cm^−1, respectively. To generate initial rates, (Δ[CGA]| was plotted against time. The change in absorbance during the first minute of the reaction was fit to a linear curve, which is used to generate the reaction rate. We note that the rate of CGA depletion is equivalent to CA formation. To test the effect of salt on enzyme kinetics, the same procedure was used, except that the experiment was run with 0.04 mM CGA buffered in 50 mM HEPES pH 8.0 with 500 mM NaCl.
Temperature-dependence measurements. A circulating water bath was used to run enzymatic reactions at different temperatures to maintain the temperature in the spectrophotometer within 1° C. of the target temperature. Buffered solution, CGA, and CGA esterase samples were pre-incubated for 10 min at the desired temperature before starting a measurement. All other instrument parameters were the same as for room temperature measurements described above.

[2] = Circular dichroism thermal and pH stability; format: physicochemical
Protocol: Circular dichroism, dynamic light scattering and mass spectrometry. Circular dichroism (CD) spectra were taken on a Jasco J-1500 CD spectrophotometer. CGA esterase (0.2 mg mL^−1) was buffered in a solution of approximately 5 mM HEPES, pH 8.0. Spectra were recorded at 4° C. using the following settings: 100 nm min^−1 scan rate, 0.2 nm data pitch, 1.0 nm bandwidth, and 2 s integration time. Five acquisitions were averaged per experimental sample. […] The Tm was estimated by fitting a Boltzmann sigmoidal function to the denaturation curve. For CD spectra that were run at different pH, a concentrated CGA esterase stock solution was diluted to either 0.2 mg mL^−1 or 0.1 mg mL^−1 into solutions of 10 mM buffer at the pH indicated.

[3] = CGA esterase activity in the sunflower meal supernatant and pellet (HPLC); format: biochemical; details: for Pellet mg CA/g meal / Pellet mg CGA/g meal / Supernatant mg CA/g meal / Supernatant mg CGA/g meal: enzyme present
Source text: Sunflower meal and sunflower protein treatment with chlorogenic acid esterase. Sunflower seeds were ground using a KitchenAid coffee grinder in two 30 s increments and sieved through a 500 μm filter to make SFM. Two defatting methods were used: cold press and hexane extraction. To make cold pressed SFM, ground seeds were pressed in a Carver Hydraulic Unit Model 3912 3852-0 five times to a pressure of 9,000-10,000 psi. For hexane extracted SFM, fat was removed from ground seeds using a Soxhlet apparatus in 250 mL hexane for 18 h and subsequently dried using a Fischer Scientific Isotemp Oven Model 516G at 45° C. for 3 h. Cold pressed, hexane extracted, and undefatted SFM were then sieved through a 500 μm filter.
Chlorogenic acid esterase activity in the sunflower meal supernatant and pellet. SFM (1 g) that was cold pressed, hexane extracted, or undefatted was buffered in 10 mL of 50 mM HEPES, pH 8.0. CGA esterase was added to a final concentration of 0.756 μM (0.02 mg mL^−1). Untreated samples received a solution of 50 mM HEPES, pH 8.0 instead of CGA esterase. Samples treated with CGA esterase were allowed to sit for 10 min and subsequently centrifuged at 10,000 rpm for 10 min. The supernatant was filtered through a 0.2 μm filter and loaded onto an HPLC while the pellet was lyophilized for 20 h. After lyophilization, 10 mL of 70% ethanol was then added to the dried pellet for 1 h to extract CGA. The pellet was subsequently centrifuged at 10,000 rpm for 10 min. The supernatant was then filtered through a 0.2 μm filter and loaded onto an HPLC.
HPLC quantification of CGA and CA in sunflower meal and protein isolates. All solutions were diluted ten-fold in 0.1% formic acid in HPLC-grade water before analysis. Quantification of CGA and CA concentration was performed using an Agilent 1260 series HPLC instrument (Agilent Technologies) equipped with a quaternary pump, an automated sample injector, a diode array detector, and a 4.6 mm×150 mm Luna C18(2) column with a 5 μm particle size and 100 Å pore size (Phenomenex). The injection volume was 20 μL. To elute analytes, mobile phases composed of 0.1% formic acid in HPLC-grade water (A) and 0.1% formic acid in HPLC-grade acetonitrile (B) were used in a linear gradient. The gradient is as follows: 0 to 13% B in 1 min, up to 27% B at 8 min, up to 100% B at 8.5 min, isocratic at 100% B to 9.5 min, 100% B returned to 0% B at 9.6 min with 3 min post-time. The concentrations of CGA and CA were calculated from peak integration data based on 10-point standard curve that spanned a concentration range of 0 to 0.1 mg mL^−1.

[4] = CGA in 50 mM HEPES pH 8.0, 20° C.

Temperature until which the enzyme is active [1]: at least 50 °C | Pellet mg CA/g meal ([3]; cold pressed SFM): 0.81 ± 0.11 mg CA/g meal | Pellet mg CGA/g meal ([3]; cold pressed SFM): 0.02 ± 0.00 mg CGA/g meal | Supernatant mg CA/g meal ([3]; cold pressed SFM): 3.33 ± 0.15 mg CA/g meal | Supernatant mg CGA/g meal ([3]; cold pressed SFM): 0.00 ± 0.00 mg CGA/g meal | CGA cleavage ([3]; defatted samples): > 99% | Pellet mg CA/g meal ([3]; hexane extracted SFM): 1.55 ± 0.14 mg CA/g meal | Pellet mg CGA/g meal ([3]; hexane extracted SFM): 0.03 ± 0.00 mg CGA/g meal | Supernatant mg CA/g meal ([3]; hexane extracted SFM): 3.77 ± 0.10 mg CA/g meal | Supernatant mg CGA/g meal ([3]; hexane extracted SFM): 0.00 ± 0.00 mg CGA/g meal | Pellet mg CA/g meal ([3]; undefatted SFM): 0.34 ± 0.03 mg CA/g meal | Pellet mg CGA/g meal ([3]; undefatted SFM): 0.11 ± 0.01 mg CGA/g meal | Supernatant mg CA/g meal ([3]; undefatted SFM): 1.52 ± 0.08 mg CA/g meal | Supernatant mg CGA/g meal ([3]; undefatted SFM): 0.00 ± 0.00 mg CGA/g meal | CGA cleavage ([3]; undefatted samples): ca. 96%
B1: CGA esterase: CGA esterase from L. helveticus (Genbank ID: WP_025283955.1, Uniprot ID: U6F2K7), expressed in Escherichia coli; the dimer is the active form (protein, listed as Lactobacillus helveticus)
chain: MSRITIERDGLTLVGDREEPFGEIYDMAIIMHGFAANRNTDLLRQIADDLRDENVASVRFDFNGHGESDGKFEDMTVCNEIADGKAILDYVRTDPHVRDIFLVGHSQGGVVASMLAGLYPDVVKKVVLLAPAAQLKDDALRSNTQGATYDPNHIPDWPLVGNKLGMKLGGFYLRTAQVLPIYEVSQCFTRPVSVIAGTNDQWDPKYAKKYDEVYENSELHMIPNADHRFSGGYKDMAADLTAQFLKPAF
Change of CGA esterase activity with temperature ([1]; 20° C. to 50° C.): increases only weakly | Km ([1]; 40° C.): 96 ± 6 µM | Vmax ([1]; 40° C.): 215.4 ± 31.7 mM/min/mg | Km [1, 4]: 90 ± 38 µM | Vmax [1, 4]: 170.2 ± 32.3 mM/min/mg | Vmax ([1]; CGA in 50 mM HEPES pH 8.0, 20° C., listed as L. helveticus): 170.2 mM/min/mg | kcat [1]: 82 s⁻¹ and 82 ± 15.6 s⁻¹ | kcat ([1]; listed as L. helveticus CGA esterase): 82 s⁻¹ | kcat ([1]; listed as chlorogenic acid esterase from Lactobacillus helveticus): 82 s⁻¹ | Vmax higher than previously reported ([1]; vs Song & Baik, 2017): 300 fold | Tm ([2]; CD signal at 222 nm, thermal denaturation): 65 °C | pH range over which the protein is stable (CD spectra) ([2]; room temperature (21° C.)): 6.0-9.0 pH | Conversion of CGA into caffeic and quinic acid ([3]; SFM, in 10 min): ~100%
